In PMC4336573 (2015):

Target: T1, Histone H3 K27me3 peptide H3K27me3 peptide (Homo sapiens, UniProt P68431, K27 trimethylation (H3))
T1 chain: QLATKAARKSAPATGGV
Assay: fluorescence anisotropy

Kd: 27.7 µM
B1: CBX7 chromodomain (protein)
chain: FAVESIRKKRVRKGKVEYLVKWKGWPPKYSTWEPEEHILDPRLVMAYEEKEERDRASGY
